The values below come from publication PMC5376635, “NDR1-Dependent Regulation of Kindlin-3 Controls High-Affinity LFA-1 Binding and Immune Synapse Organization” (Molecular and Cellular Biology, 2017).

The koff is the first-order rate constant of dissociation.

Experiment [1] addresses T1, LFA-1 (mouse (endogenous in OT-II T cells), UniProt P24063 24-1162; P11835 24-771).
T1 construct: integrin αL subunit of LFA-1, mouse; integrin β2 subunit of LFA-1, mouse; also called αL/β2 integrin; source: endogenous, on naive OT-II T cells and OT-II T cell blasts (mouse)
As to the kind of experiment: single-molecule tracking by TIRF microscopy on supported lipid bilayers; as a1 but with 1 mM Mn^2+ and in the absence of pMHC, similar ICAM-1 density. To be noted: one partner purified.

Experiment [2] addresses T1, LFA-1. As to the kind of experiment: single-molecule tracking by TIRF microscopy on supported lipid bilayers; ATTO-647N-labeled ICAM-1-GPI (300 molecules/μm^2) and I-A^b-OVA peptide (200 molecules/μm^2) in supported planar lipid bilayers; naive OT-II T cells or OT-II T cell blasts (also Rap1b KO, Mst1/2 DKO, kindlin-3 or NDR1 knock-down cells) on top; 30 frames/s for 200 s; arrests of 0.5 to 200 s counted as binding; koff from a single exponential fit …. The following applies: one partner purified.

T1 sequence (P24063 24-1162, chain 1 of 2): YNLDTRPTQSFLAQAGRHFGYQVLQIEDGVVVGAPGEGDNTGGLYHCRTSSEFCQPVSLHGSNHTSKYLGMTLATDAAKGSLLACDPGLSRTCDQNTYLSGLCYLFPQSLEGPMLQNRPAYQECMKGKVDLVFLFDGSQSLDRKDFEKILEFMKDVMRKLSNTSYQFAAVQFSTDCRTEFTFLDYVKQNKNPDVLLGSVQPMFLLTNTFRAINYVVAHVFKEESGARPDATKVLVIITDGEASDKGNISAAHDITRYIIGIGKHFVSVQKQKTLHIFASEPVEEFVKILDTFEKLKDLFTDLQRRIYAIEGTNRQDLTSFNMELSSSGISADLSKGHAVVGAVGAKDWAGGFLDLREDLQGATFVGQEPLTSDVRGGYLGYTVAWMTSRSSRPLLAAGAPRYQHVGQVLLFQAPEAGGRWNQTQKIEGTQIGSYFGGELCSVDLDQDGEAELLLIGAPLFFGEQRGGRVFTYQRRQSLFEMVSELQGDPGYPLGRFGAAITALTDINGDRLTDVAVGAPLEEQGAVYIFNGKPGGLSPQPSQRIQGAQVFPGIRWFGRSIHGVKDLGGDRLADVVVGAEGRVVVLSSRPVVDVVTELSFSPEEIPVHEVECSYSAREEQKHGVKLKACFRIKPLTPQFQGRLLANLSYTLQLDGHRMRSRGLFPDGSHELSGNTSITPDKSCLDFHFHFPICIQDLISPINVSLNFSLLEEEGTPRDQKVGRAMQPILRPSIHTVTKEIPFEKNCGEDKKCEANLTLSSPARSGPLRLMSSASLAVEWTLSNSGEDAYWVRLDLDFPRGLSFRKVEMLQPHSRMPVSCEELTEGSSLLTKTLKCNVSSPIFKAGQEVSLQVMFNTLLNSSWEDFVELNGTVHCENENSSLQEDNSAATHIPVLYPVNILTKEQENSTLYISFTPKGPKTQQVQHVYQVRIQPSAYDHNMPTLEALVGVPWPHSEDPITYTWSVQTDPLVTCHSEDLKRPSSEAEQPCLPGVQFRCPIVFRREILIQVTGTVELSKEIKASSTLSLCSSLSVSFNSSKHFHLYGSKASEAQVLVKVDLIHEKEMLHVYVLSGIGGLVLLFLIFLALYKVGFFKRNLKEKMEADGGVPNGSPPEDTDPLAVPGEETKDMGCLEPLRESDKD
T1 sequence (P11835 24-771, chain 2 of 2): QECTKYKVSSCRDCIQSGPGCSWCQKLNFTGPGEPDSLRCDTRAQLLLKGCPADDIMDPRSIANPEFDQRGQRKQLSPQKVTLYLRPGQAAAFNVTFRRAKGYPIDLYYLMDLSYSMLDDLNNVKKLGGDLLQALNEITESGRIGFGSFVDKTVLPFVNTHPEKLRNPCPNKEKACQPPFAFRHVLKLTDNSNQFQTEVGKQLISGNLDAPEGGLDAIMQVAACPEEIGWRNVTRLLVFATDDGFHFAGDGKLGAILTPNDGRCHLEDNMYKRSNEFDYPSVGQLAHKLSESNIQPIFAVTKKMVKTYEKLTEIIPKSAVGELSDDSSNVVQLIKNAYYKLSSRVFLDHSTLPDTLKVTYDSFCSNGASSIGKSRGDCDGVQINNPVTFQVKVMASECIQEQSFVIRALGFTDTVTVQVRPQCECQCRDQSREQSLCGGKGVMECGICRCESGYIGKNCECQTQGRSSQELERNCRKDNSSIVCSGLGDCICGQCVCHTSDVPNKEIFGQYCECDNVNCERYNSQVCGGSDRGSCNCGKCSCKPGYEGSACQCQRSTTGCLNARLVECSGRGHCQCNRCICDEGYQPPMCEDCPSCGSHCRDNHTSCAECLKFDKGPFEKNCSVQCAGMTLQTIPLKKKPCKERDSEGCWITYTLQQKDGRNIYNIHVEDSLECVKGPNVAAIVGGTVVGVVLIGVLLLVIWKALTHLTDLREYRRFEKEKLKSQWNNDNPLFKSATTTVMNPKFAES

B1: Mouse ICAM-1-GPI (ligand)
chain: QVSIHPREAFLPQGGSVQVNCSSSCKEDLSLGLETQWLKDELESGPNWKLFELSEIGEDSSPLCFENCGTVQSSASATITVYSFPESVELRPLPAWQQVGKDLTLRCHVDGGAPRTQLSAVLLRGEEILSRQPVGGHPKDPKEITFTVLASRGDHGANFSCRTELDLRPQGLALFSNVSEARSLRTFDLPATIPKLDTPDLLEVGTQQKLFCSLEGLFPASEARIYLELGGQMPTQESTNSSDSVSATALVEVTEEFDRTLPLRCVLELADQILETQRTLTVYNFSAPVLTLSQLEVSEGSQVTVKCEAHSGSKVVLLSGVEPRPPTPQVQFTLNASSEDHKRSFFCSAALEVAGKFLFKNQTLELHVLYGPRLDETDCLGNWTWQEGSQQTLKCQAWGNPSPKMTCRRKADGALLPIGVVKSVKQEMNGTYVCHAFSSHGNVTRNVYLTVLYHSQNN
modifications: GPI anchor; labeled with ATTO-647N-NHS-ester
Regarding B1, the “fold increase of binding durations longer than 10 s with Mn^2+” value with LFA-1 [1] was found to be 2 fold. The koff with LFA-1 [2] stood at 0.032 s⁻¹.
